41 sequences from the nanobody polyreactivity screen of Harvey et al. (2022) can be followed below.

The data set in a line: yeast display, Sf9 membrane polyspecificity reagent, FACS + sequencing; frameworks hold sequencing errors. The method, boiled down: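 In a synthetic yeast display library (Saccharomyces cerevisiae BJ5465), nanobody expression was induced with galactose for 36–48 hours. FACS gates were set low and high (top ~1%) using anti-HA fluorescence for expression and streptavidin fluorescence for binding of the Sf9 membrane reagent. Each polyreactivity label is drawn from the gate of origin.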
On to “QVQLVESGGGLVQAGGSLRLSCAASGSIFIYAMGWYRQAPGKERELVATISWSGTSTYSDSVKGRFTISRDNAKNTVYLQMNSLKPEDTAVYYCNKLKRTYYSSGYPHDYWGQGTQVTVSS”, for which the “polyreactivity (PSR sort gate)” value is “low polyreactivity”.
On to “QVQLVESGGGLVQAGGSLRLSCAASGRIFGVNAMGWYRQAPGKERELVAAITWSGGRTYYADSVKGRFTISRDNAKNTVFLLMNSMKQEDTAVYYCNTGLSGRRYGFGLSFCMDYWGQGTQVTVSS”, for which the “polyreactivity (PSR sort gate)” value is “low polyreactivity”.
The same measure for “QVQLVESGGGLVQAGGSLRLSCAAYGRIFDGNAMGWYRQAPGKERELVAAITSRGGRTYYADSVKGRFTISRDNAKNTVYLQMNSLKPEDTAVYYCNTRVKSYGHYDYWGQGTQVTVSS”: “high polyreactivity”; for “QVQLVESGGGLVQAGGSLRLSCAASGSIFIYYAMGGYRQEPGKERELVAAINTGGTTYYADSVKGRFTISRYNAKNTVYLQMNSLNPEDTAVYYCAKYIAYYGYVPSPWDHPGDDYWGQGTQVTVSS”: “low polyreactivity”.
With “QVQLVESGGGLVQAGGSLRISCAASGSTFTTYSMGWYRQAPGKEREKVAAIRFSGGTTYYADSVKGRFTISRDNAKNTVYLQMNSLKPEDTAVYYCAAVYISRIFFGRARGDYWGQGTQVTVSS”, the “polyreactivity (PSR sort gate)” value is on record as “low polyreactivity”.
As to “QVQLEESGGALVQAGGSLRLSCAASGRTFSGNAMGWYRQAPGKERELVAAISSGGSTNYADSVKGRFTISRDNAKNTVYLQMNSLKPEDTAVYYCAADEWRFPSYAYYYWGQGTQVTVSS”, the “polyreactivity (PSR sort gate)” value is recorded as “low polyreactivity”.
Take “QVQHVESGGGLVQAGGTLRLSCAASGSTFLINTMGWYRQAPGKERELVAAISRSGGRTYYADSVKGRFTISRDNAKNTVYLQMNSLKPEDTAVYYCAAAYVYSNSYAFGSELYSWGQGTQVTVSS”: the “polyreactivity (PSR sort gate)” value is “high polyreactivity”.
The same measure for “QVQLVESGGGLVQAGGSLRLSCAASGNIIAYYAMGWSRQPPGKDRELVAAITDSGGNTFYADSVKGRFTISRDNAKNSVFLQMNSLKPEDTAVYYCAADPDCWGFVYPRYDYWGQGTQVTVSS”: “low polyreactivity”.
For the sequence “QVQLVESGGGYVQAGGSLRLSCAASGSTFKGYAMGLYRQAPGKEMELVAAITWIGGSTTYADSVKGRFTISCDNAKNTVYLQMNSLKPEDTAVYYCAADNFWYFLSATEDYWGQGTQVTVSS”, the “polyreactivity (PSR sort gate)” value was “low polyreactivity”.
“QVQLVESGGGLVQAGGSLRLSCAASGITFSRKVMGWFRQAPGKERELVAAISRSGGRTYYADSVKGRFTISRDTAKNTVYLQMNSLKPEDTAVYYCNRDIGGTSVLDDYWGQGTQVTVSS”: the “polyreactivity (PSR sort gate)” value is “low polyreactivity”.
On to “QVHLVESGGGLVQAGGSLRISCAASGSTFHGYAMGWYRQEPGKEMELVAAITSGDSTNYADSVKGRFTISRDNAKNTVYLQMNSLKPEDTAVYFCNAEGDSLLTGYWGYPPYWDTYDNWGQGTQVTVSS”, for which the “polyreactivity (PSR sort gate)” value is “low polyreactivity”.
The result for “QVQLVESGGGLVQAGGSLRLSCAASGSIFTHYAMGWYRQAPGKERELVAAISRRGGSTYYADSVKGRFTISRDNAKNTVYLQMNSLKPEDTAVYYCANSPDTAKEYDYWGQGTQVTVSS” reads “high polyreactivity”; that for “QVQLVESGGGLVQAGGSLRLSCAASGRIFPTYAMGWYRQAPGKERELVATITRRGGSTYYADSVKGRFTISRDNAKNTVYLQMNSLKPEDTAVYYCAARLWGTIRYDYWGQGTQVTVSS”, “high polyreactivity”; that for “QVQLVESGGGLVQAGGSLRLSCAASGFTFRRYAMGWYRQAPGKERELVAAINKSGGSTYYADSVKGRFTISRDNAKNTVYLQMNSLKPEDTAVYYCAKPLTAYSGFDHWGQGTQVTVSS”, “high polyreactivity”.
In the case of “QVQLVESGGGLGQAGGRLRLSCAASGRTFGYNAMGWYRQAPGKERELVAAISSGGSTNYADSVKGRFTISRDNAKNTVYLQMNSLKPEDTAVYYCAARRWRYVGTRYDYWGQGTQVTVSS”, the “polyreactivity (PSR sort gate)” value is “high polyreactivity”.
Take “QVQLVESGGGLVQAGGSLRLSCAASGSTFTRNTMGWYKQAPGKEREMVAAISRRGGRTDYADSVKGRFTISRDNAKNSVYLQMNSLKPEDTAVYYCAADPITVDQNPRYGYWGQGTQVTVSS”: the “polyreactivity (PSR sort gate)” value was “high polyreactivity”.
The same measure for “QVQLVESGGGLVQAGGSLRLSCAASRRIYGGNAMGLNRKAPGKERELVAAINSSGGRTYYADSVKGRFKISRDNAKNTVYLQMKSLKTEDTAVYYCAGRVGCNWYDYWGQGTQVPVSS”: “high polyreactivity”; for “QVQLVESGGGLVQAGGSLRLSCAASGRIFYRYAMGWYRQAPGKERELVATISSGGSTNYADSVKGRFTISRDNAKNTVYLQMNSLKPEDTAVYYCARQSLRYSYVSRDYWGQGTQVTVSS”: “low polyreactivity”; for “QVQLVESGGGLVQAGGSLRLSSAASGRIFYGYAMGWYRQAPGKERELVAAITNTGVDTYYADSVKGRFTISRDNEKNTVYLQMNSLKPEDTAVYYCAADGRRPKSGYWGQGTQVTVSS”: “low polyreactivity”.
The same measure for “QVQLVESGGGLVQAGGSLRLSCAASGSIIGFNGMGWYRQAPGKERELVSAISSTGGSTYYADSVKGRFTISRDNAKNTVYLQMNSLKPEDTAVYICNTDYSKTIGDGYAGFDYWGQGTQGTVSS”: “low polyreactivity”; for “QVQLVESGGGLVQAGGSLRLSCAASGFIVKRYARGWYRQAPGKERELVAAITSSGGRTYYADSVKGRFTISRDTAKNTVYLQMNSLKPEDTAVYYCAKGWSTYYTKMNYWGQGTQVTVSS”: “high polyreactivity”; for “QVQLVESGGGLVQAGGSLRLSCAASGRTFGQNAMGWYRQAPGKERELVAVISSRGGSTYYADSVKGRFTISRDNAKNTVYLQMNSLKPEDTAVYYCNTDAQSRQTIRTGYDSWGQGTQVTVSS”: “high polyreactivity”.
Consider “QVQLVESGGGLVQAGGSLRLSCAASGRIFPLYAMGWYRPAPGKERELVADISVTGTSTYYADSVKGRFTISRDNAKNTVYLQMNSLKPEDTAVYYCAADLWAYGPLWRWSRADYDYWGQGTQVTVSS”, for which the “polyreactivity (PSR sort gate)” value is “low polyreactivity”.
The same measure for “QVQLVESGGVLVQAGGSLRLSCAASGSTFLLNTMGWYRQAPGKERELVATITSTDDTNYADSVKGRFTISRDNAKNTVYLHMNSLKPEDTAVYYCAKGYLNYGRDWDFDSWGQGTQVTVSS”: “low polyreactivity”; for “QVQLVESGGGLVQAGGSLRLSCAASGRTFYRNVMGWYRQAPGKERELVAAISSRGGSTYYADSVKGRFTISRDNAKNTVYLQMNSLKPEDTAVYYCAAPRASGYYWGQGTQVTVSS”: “high polyreactivity”.
The result for “QVQLVESGGGLVQAGGSLRLSCAPPDLPSVVMLWDGIDRRLGKKGSSLPLLLLLVVSHADSVKGRFTISRDNAKNTVYLQMNSLKPDDTAVYYCAVAVLPWQLYSESYAEYDYWGQGTQVTVSS” reads “low polyreactivity”; that for “QVQLVESGGGLVQAGGSLRLSCAASGRTFVYNAMGWYRQAPGKERELVAGITGSGDSTYYADSVKGRFTISRDNAKNTVYLQMNSLKPEDTAVYYCNQLVEEDYWGQGTQVTVSS”, “low polyreactivity”.
Regarding “QVQLVESGGGLVQAGGSLRLSCAASGRTFVPYVMGWYRQAPGKERELVAAISSSGGNTYYADSVKGRFTISPDNAKNTVYLQMNSLKPEDTAVYYCAARPRGYVYPGYYYWGQGSQVTVSS”, the “polyreactivity (PSR sort gate)” value is on record as “high polyreactivity”.
The same measure for “QVQLVESGGGLVQAGGSLRLSCAASGFTFGSNVMGWYRQAPGKERELVATIRRGGSTNYADSVKGRFTISRDNAKNTVYLQMNSLKPEDTAVYYCATGYAVYLSRRDYWGQGTQVTVSS”: “high polyreactivity”; for “QVQLVESGGGLVQAGGSLRLTCAASAFIYRRNAMGSYRQAPGKERELVAAITGGGGSTYYADSVKGSFTISRDNAKNTVYLQMNSLKPEDTAVYYCAVDLSRLYNRGGDYWGQGTQVTVSS”: “high polyreactivity”.
With “QVQLVESGGGLVQAGGSLRLSCAASGRNLRWYAMGWYRPAPGKERELVAAISTRSGSTYYADSVKGRFTISRDNAKNTVYLQMNSLKPEDTAVYYCAAQFWVKGQPQYGYLGQGTQVTVSS”, the “polyreactivity (PSR sort gate)” value is given as “high polyreactivity”.
With “QVQLVESGGGLVQAGGSLRLSCAASGSTFAYYTRGWYRQAPGKERELVAAITSGGRTSYADSVKGRFTISRDNAKNSVYLQMNSLKPEDTAVYYCAKGRKPGYYYWGQGTQVTVSS”, the “polyreactivity (PSR sort gate)” value was “high polyreactivity”.
As for “QVQLVESGGGLVQAGGSLRLSCAASGSTFYTYAMGWYRQAPGKERELVARIRWSVGSTYYADSVKGRFTISRDNAKNTVYLQMNSLKPEDTAVYYCAADYYKRYKYLYDYWGQGTQVTVSS”, the “polyreactivity (PSR sort gate)” value is recorded as “high polyreactivity”.
The same measure for “QLQLGESGGGLVQAAGSRRLSCAASGRTLCYYAMGWYSQAPGQDRELVAAITWTGGRTYYADSVKGRFTISRDNPKNSVYLQMNTLKPDDTAVDYCNAVYSPRYYVGGYDYWGQGTQVTVSS”: “high polyreactivity”; for “QVQLVESGGGLVQAGGSLRLSCAASGRSLRGYAMGWYREAPGNEWVFVAAISSRGGSTYYADSVKGRLTLSRDNAKNTVYVQMNSLKPEDSAVYYCAAQWGRWYYGFNYRGQGTQVTVSS”: “high polyreactivity”; for “QVQLVESGAGLVQAAGSLSLSCASAGSTFFLYAMGRYRRAHGKVREFVAAISDTGGSTYYADSVKGRFTISRDNATNTVYLQMISLKPEDTACYYCNRVVASFYRSRYDYWGQGTQVTVSS”: “low polyreactivity”.
As to “QVQLVESGGGLVQAGGILRLSCAASGSTFARYAMGWYRQEPGKERELVAVIRSGGSTNYADSVKGRFTISRDNAKNTVYLQMNSLKPEDTAGAADQWTIHRWATYGYWGQGTQVTVSS”, the “polyreactivity (PSR sort gate)” value is recorded as “low polyreactivity”.
The same measure for “QVQLVESGGGLVQAGGSLRLSCAASGSTFSVYTMGWYRQAPGKERELVAAITRNGGSTSYADSVKGRFTISRDNAKNTVYLQMNSLKPEDTAVYYCAASYSYRGYLYGYWGQGTQVTVSS”: “high polyreactivity”; for “QVQLVESGGGLVQAGGSLRLSCAASGRTFGRYAMGWYRQAPGKERELVASITSRGGSTYADSVKGRFTISRDNAKNTVYLQMNSLKPEDTAVYYCASRDKYRYWYAYWRQGTQVTVSS”: “high polyreactivity”; for “QVQLVESGGGLVQAGGSLRLSCAASGTMGSYRQAPGKERELVAAISQSGGSTYYADSVKGRFTISRDNAKNTVYLQMNSLKPEDTAVYYCAVDPRYGHPRRDYWGQGTQVTVSS”: “low polyreactivity”.
The same measure for “QVQLVETGGGLVQAGGSLRLSCAASGFIFVLNAMGWDRQAPGKEMEFVAAITRSGGSTYYADSVKGRFTISRDNAKNNVYLPMNSLKPEVTAVYYCAVLYHSRDRYTYRDEDYWGQGTQVTVSS”: “low polyreactivity”.
